This passage reports Ho/Con_2b and He/Con_2b results from US20180155451A1 (published 2018).

Assay [1] addresses T1, FcγRIIb extracellular domain with C-terminal His tag (human, UniProt P31994 43-217).
T1 construct: extracellular domain; expressed in FreeStyle293 cells; analyte in the Biacore assay; also called FcgRIIb; 2b; not shown: His tag at the C terminus
T1 sequence (looked up): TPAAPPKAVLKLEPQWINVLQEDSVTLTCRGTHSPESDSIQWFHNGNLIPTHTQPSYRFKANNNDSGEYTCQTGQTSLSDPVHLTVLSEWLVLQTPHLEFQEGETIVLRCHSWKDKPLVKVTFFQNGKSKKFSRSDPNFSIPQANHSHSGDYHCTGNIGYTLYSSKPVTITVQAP
Description: SPR (Biacore), captured antibody, FcγRIIb analyte; binding relative to GpH7-B3/GpL16-k0 = 100.

Assay [2] concerns the target T1, FcγRIIb extracellular domain with …. Description: SPR (Biacore), captured antibody, FcγRIIb analyte; binding relative to GpH7-A5/GpH7-B3/GpL16-k0 = 100.

B1: GpH7-B3 variant K326_14T/GpL16-k0 (antibody, human IgG1, kappa)
heavy: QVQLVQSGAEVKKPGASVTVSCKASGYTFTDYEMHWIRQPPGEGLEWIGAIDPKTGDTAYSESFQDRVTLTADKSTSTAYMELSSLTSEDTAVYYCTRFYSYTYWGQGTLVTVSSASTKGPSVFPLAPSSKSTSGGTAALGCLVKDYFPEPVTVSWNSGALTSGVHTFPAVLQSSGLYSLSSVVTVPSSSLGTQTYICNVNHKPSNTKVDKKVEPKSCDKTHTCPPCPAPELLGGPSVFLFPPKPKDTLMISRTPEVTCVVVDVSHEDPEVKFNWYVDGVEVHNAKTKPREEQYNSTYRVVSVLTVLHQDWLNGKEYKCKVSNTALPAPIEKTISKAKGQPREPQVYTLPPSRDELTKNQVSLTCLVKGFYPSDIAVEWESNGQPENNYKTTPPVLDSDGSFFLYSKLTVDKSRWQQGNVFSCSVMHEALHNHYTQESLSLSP
light: DIVMTQSPLSLPVTPGEPASISCQASESLVHSNRNTYLHWYLQKPGQSPQLLIYKVSNRFSGVPDRFSGSGSGTDFTLKISRVEAEDVGVYYCSQNTHVPPTFGQGTKVEIERTVAAPSVFIFPPSDEQLKSGTASVVCLLNNFYPREAKVQWKVDNALQSGNSQESVTEQDSKDSTYSLSSTLTLSKADYEKHKVYACEVTHQGLSSPVTKSFNRGEC
notes: homodimerized; mutation in both H chains; also called Ho Ab K326_14T
Consider B1, for which, in assay [1], the Ho/Con_2b was 177 % of control.

B2: GpH7-A5/GpH7-B3 variant K326_07I/GpL16-k0 (antibody, human IgG1, kappa)
heavy 1: not shown
heavy 2: not shown
light: B1 light
notes: heterodimerized; mutation in the B3 H chain only; also called He Ab K326_07I
Take B2: in assay [2], the He/Con_2b is 199 % of control.

B3: GpH7-B3 variant K326_20W/GpL16-k0 (antibody, human IgG1, kappa)
heavy: not shown
light: B1 light
notes: homodimerized; mutation in both H chains; also called Ho Ab K326_20W
For B3, in assay [1], the Ho/Con_2b was 132 % of control.

B4: GpH7-B3 variant K334_07I/GpL16-k0 (antibody, human IgG1, kappa)
heavy: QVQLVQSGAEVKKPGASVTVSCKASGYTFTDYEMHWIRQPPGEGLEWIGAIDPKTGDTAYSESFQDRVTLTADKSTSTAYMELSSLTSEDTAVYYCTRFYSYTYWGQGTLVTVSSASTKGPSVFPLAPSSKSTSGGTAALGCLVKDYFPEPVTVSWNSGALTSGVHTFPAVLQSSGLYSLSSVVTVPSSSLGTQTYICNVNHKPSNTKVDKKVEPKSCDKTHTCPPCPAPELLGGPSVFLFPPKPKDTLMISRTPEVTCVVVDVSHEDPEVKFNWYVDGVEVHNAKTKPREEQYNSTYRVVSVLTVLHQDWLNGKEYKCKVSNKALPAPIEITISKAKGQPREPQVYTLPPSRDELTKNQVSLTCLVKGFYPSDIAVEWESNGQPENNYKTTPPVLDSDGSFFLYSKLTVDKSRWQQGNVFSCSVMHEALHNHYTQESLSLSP
light: B1 light
notes: homodimerized; mutation in both H chains; also called Ho Ab K334_07I
As for B4, the Ho/Con_2b in assay [1] is 137 % of control.

B5: GpH7-B3 variant K334_08L/GpL16-k0 (antibody, human IgG1, kappa)
heavy: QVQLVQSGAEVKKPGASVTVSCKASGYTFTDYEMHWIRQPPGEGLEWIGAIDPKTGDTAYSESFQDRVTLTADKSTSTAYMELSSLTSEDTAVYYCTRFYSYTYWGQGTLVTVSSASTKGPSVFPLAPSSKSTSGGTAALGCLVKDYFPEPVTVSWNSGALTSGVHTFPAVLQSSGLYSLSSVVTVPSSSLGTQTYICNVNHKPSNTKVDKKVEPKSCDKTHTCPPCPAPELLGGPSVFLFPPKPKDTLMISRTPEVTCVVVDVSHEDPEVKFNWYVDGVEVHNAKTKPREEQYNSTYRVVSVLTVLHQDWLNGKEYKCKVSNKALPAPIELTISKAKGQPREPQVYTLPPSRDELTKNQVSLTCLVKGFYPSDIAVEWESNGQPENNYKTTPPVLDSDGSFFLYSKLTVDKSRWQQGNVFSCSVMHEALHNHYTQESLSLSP
light: B1 light
notes: homodimerized; mutation in both H chains; also called Ho Ab K334_08L
B5: the Ho/Con_2b in assay [1] is 114 % of control.

B6: GpH7-A5/GpH7-B3 variant H268_18N/GpL16-k0 (antibody, human IgG1, kappa)
heavy 1: not shown
heavy 2: not shown
light: B1 light
notes: heterodimerized; mutation in the B3 H chain only; also called He Ab H268_18N
For B6, the He/Con_2b in assay [2] is 156 % of control.

B7: GpH7-A5/GpH7-B3 variant G236_09D/GpL16-k0 (antibody, human IgG1, kappa)
heavy 1: not shown
heavy 2: not shown
light: B1 light
notes: heterodimerized; mutation in the B3 H chain only; also called He Ab G236_09D
As to B7, in assay [2], the He/Con_2b was 167 % of control.

B8: GpH7-B3 variant K334_14T/GpL16-k0 (antibody, human IgG1, kappa)
heavy: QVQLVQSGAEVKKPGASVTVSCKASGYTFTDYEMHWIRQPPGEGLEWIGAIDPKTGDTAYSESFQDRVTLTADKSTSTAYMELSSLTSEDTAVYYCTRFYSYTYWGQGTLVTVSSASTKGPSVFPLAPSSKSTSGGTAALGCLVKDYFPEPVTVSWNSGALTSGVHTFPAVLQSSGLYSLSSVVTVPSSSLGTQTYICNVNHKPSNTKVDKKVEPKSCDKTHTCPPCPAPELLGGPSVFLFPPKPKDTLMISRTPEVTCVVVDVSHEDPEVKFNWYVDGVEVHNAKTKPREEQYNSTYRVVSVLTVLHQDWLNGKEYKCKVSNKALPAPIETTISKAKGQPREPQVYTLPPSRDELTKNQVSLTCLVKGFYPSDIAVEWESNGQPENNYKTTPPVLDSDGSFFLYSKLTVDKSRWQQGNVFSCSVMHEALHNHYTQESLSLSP
light: B1 light
notes: homodimerized; mutation in both H chains; also called Ho Ab K334_14T
In the case of B8, the Ho/Con_2b in assay [1] is 138 % of control.

B9: GpH7-A5/GpH7-B3 variant H268_10E/GpL16-k0 (antibody, human IgG1, kappa)
heavy 1: not shown
heavy 2: not shown
light: B1 light
notes: heterodimerized; mutation in the B3 H chain only; also called He Ab H268_10E
Turning to B9, the He/Con_2b in assay [2] is 230 % of control.

B10: GpH7-B3 variant S239_03V/GpL16-k0 (antibody, human IgG1, kappa)
heavy: not shown
light: B1 light
notes: homodimerized; mutation in both H chains; also called Ho Ab S239_03V
Turning to B10, in assay [1], the Ho/Con_2b was 108 % of control.

B11: GpH7-B3 variant L328_02A/GpL16-k0 (antibody, human IgG1, kappa)
heavy: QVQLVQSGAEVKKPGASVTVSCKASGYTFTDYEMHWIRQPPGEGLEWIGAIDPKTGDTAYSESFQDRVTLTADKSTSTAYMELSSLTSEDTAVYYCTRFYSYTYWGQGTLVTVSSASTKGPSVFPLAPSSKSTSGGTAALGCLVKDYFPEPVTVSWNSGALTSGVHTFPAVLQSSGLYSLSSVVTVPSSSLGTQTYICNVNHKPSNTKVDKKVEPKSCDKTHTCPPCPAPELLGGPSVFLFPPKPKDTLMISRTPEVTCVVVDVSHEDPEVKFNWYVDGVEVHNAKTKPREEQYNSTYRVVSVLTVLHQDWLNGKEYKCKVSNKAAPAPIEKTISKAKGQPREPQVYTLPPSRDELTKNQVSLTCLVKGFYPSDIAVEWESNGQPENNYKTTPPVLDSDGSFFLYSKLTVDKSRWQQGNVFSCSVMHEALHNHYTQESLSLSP
light: B1 light
notes: homodimerized; mutation in both H chains; also called Ho Ab L328_02A
For the molecule B11, the Ho/Con_2b in assay [1] was 117 % of control.

B12: GpH7-A5/GpH7-B3 variant A330_01G/GpL16-k0 (antibody, human IgG1, kappa)
heavy 1: not shown
heavy 2: not shown
light: B1 light
notes: heterodimerized; mutation in the B3 H chain only; also called He Ab A330_01G
On to B12, for which the He/Con_2b in assay [2] is 104 % of control.

B13: GpH7-B3 variant T335_10E/GpL16-k0 (antibody, human IgG1, kappa)
heavy: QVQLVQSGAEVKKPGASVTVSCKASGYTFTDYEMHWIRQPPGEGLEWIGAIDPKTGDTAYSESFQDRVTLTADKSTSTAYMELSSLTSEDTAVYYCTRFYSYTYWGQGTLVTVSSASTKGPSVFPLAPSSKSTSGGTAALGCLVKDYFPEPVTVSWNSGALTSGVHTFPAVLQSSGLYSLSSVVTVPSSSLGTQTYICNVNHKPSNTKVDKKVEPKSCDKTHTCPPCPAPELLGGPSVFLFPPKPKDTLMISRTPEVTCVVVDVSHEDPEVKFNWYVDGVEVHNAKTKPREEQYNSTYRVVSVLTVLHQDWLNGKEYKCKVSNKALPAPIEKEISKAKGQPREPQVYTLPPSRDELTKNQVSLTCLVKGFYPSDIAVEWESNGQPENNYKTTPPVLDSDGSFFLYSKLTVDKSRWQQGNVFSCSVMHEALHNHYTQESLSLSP
light: B1 light
notes: homodimerized; mutation in both H chains; also called Ho Ab T335_10E
With B13, in assay [1], the Ho/Con_2b was 108 % of control.

B14: GpH7-B3 variant S239_10E/GpL16-k0 (antibody, human IgG1, kappa)
heavy: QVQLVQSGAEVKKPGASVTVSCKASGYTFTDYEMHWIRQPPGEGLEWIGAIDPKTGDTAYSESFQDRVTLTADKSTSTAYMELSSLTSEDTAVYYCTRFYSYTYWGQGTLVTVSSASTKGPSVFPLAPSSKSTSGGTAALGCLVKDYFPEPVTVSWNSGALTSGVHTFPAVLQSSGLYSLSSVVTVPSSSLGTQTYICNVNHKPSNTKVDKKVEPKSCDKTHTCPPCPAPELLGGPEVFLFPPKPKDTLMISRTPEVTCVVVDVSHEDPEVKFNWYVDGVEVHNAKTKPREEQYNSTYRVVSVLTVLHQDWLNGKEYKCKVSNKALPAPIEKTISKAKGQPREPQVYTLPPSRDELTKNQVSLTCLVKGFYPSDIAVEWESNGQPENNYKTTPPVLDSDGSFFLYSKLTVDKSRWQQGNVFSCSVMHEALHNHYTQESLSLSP
light: B1 light
notes: homodimerized; mutation in both H chains; also called Ho Ab S239_10E
For B14, in assay [1], the Ho/Con_2b is 175 % of control.

B15: GpH7-B3 variant K334_04F/GpL16-k0 (antibody, human IgG1, kappa)
heavy: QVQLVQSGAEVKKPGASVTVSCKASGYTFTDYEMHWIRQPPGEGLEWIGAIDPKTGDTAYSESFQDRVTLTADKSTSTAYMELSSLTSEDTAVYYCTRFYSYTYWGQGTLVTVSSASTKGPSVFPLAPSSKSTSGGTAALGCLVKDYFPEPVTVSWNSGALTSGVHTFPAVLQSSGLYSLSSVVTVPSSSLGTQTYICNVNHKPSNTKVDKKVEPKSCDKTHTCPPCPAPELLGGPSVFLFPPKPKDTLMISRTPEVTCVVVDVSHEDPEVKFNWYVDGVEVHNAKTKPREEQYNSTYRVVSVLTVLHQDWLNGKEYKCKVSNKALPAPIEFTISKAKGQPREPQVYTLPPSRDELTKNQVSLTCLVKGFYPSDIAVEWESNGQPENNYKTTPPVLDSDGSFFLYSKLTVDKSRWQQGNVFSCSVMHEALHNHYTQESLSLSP
light: B1 light
notes: homodimerized; mutation in both H chains; also called Ho Ab K334_04F
B15: the Ho/Con_2b in assay [1] is 115 % of control.

B16: GpH7-B3 variant Y296_20W/GpL16-k0 (antibody, human IgG1, kappa)
heavy: not shown
light: B1 light
notes: homodimerized; mutation in both H chains; also called Ho Ab Y296_20W
Regarding B16, the Ho/Con_2b in assay [1] was 103 % of control.

B17: GpH7-A5/GpH7-B3 variant I332_10E/GpL16-k0 (antibody, human IgG1, kappa)
heavy 1: not shown
heavy 2: not shown
light: B1 light
notes: heterodimerized; mutation in the B3 H chain only; also called He Ab I332_10E
In the case of B17, in assay [2], the He/Con_2b is 142 % of control.

B18: GpH7-B3 variant K334_02A/GpL16-k0 (antibody, human IgG1, kappa)
heavy: not shown
light: B1 light
notes: homodimerized; mutation in both H chains; also called Ho Ab K334_02A
For the molecule B18, the Ho/Con_2b in assay [1] is 110 % of control.

B19: GpH7-B3 variant P331_16H/GpL16-k0 (antibody, human IgG1, kappa)
heavy: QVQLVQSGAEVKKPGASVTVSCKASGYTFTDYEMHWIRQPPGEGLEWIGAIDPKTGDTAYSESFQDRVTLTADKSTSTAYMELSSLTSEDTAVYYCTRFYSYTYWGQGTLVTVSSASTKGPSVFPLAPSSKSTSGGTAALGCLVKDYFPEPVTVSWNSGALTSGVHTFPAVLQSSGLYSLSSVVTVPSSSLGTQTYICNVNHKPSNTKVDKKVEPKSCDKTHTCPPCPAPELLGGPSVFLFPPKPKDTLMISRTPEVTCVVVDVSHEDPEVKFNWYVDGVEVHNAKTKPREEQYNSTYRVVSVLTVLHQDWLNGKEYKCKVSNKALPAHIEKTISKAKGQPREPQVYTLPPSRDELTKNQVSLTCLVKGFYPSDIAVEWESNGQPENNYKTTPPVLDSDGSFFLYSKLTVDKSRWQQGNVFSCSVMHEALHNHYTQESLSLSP
light: B1 light
notes: homodimerized; mutation in both H chains; also called Ho Ab P331_16H
On to B19, for which the Ho/Con_2b in assay [1] is 100 % of control.

B20: GpH7-B3 variant K334_03V/GpL16-k0 (antibody, human IgG1, kappa)
heavy: not shown
light: B1 light
notes: homodimerized; mutation in both H chains; also called Ho Ab K334_03V
For B20, the Ho/Con_2b in assay [1] was 145 % of control.

B21: GpH7-B3 variant P331_15Y/GpL16-k0 (antibody, human IgG1, kappa)
heavy: not shown
light: B1 light
notes: homodimerized; mutation in both H chains; also called Ho Ab P331_15Y
On to B21, for which the Ho/Con_2b in assay [1] is 111 % of control.

B22: GpH7-A5/GpH7-B3 variant H268_01G/GpL16-k0 (antibody, human IgG1, kappa)
heavy 1: not shown
heavy 2: not shown
light: B1 light
notes: heterodimerized; mutation in the B3 H chain only; also called He Ab H268_01G
As to B22, in assay [2], the He/Con_2b is 144 % of control.

B23: GpH7-B3 variant S324_06M/GpL16-k0 (antibody, human IgG1, kappa)
heavy: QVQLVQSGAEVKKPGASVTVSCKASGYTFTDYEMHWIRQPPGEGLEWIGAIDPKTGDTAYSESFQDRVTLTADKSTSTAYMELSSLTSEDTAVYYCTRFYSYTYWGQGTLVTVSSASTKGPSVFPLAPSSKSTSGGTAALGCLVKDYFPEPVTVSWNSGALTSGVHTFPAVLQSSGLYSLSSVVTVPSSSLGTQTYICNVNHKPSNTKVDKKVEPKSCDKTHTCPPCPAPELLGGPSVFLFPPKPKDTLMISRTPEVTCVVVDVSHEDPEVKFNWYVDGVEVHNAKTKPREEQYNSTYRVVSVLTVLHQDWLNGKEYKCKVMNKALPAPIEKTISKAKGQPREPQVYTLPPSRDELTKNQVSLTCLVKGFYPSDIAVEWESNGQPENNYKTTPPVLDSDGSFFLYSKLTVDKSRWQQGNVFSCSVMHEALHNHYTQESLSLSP
light: B1 light
notes: homodimerized; mutation in both H chains; also called Ho Ab S324_06M
B23: the Ho/Con_2b in assay [1] is 104 % of control.

B24: GpH7-B3 variant P238_09D/GpL16-k0 (antibody, human IgG1, kappa)
heavy: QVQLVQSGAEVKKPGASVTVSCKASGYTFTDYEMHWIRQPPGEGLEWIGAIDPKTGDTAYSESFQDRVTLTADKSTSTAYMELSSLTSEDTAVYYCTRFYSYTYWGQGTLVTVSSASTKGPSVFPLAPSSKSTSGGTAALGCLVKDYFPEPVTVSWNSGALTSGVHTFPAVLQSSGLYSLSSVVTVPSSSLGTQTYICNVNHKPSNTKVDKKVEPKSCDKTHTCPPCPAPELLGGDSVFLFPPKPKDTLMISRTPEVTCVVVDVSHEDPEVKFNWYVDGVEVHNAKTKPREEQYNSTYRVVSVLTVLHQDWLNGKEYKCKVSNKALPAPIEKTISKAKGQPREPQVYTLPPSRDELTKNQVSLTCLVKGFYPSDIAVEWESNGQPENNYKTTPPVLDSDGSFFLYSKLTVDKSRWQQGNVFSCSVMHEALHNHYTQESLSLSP
light: B1 light
notes: homodimerized; mutation in both H chains; also called Ho Ab P238_09D
Turning to B24, in assay [1], the Ho/Con_2b was 207 % of control.

B25: GpH7-A5/GpH7-B3 variant A327_09D/GpL16-k0 (antibody, human IgG1, kappa)
heavy 1: not shown
heavy 2: not shown
light: B1 light
notes: heterodimerized; mutation in the B3 H chain only; also called He Ab A327_09D
With B25, the He/Con_2b in assay [2] was 172 % of control.

B26: GpH7-B3 variant K334_10E/GpL16-k0 (antibody, human IgG1, kappa)
heavy: not shown
light: B1 light
notes: homodimerized; mutation in both H chains; also called Ho Ab K334_10E
Turning to B26, in assay [1], the Ho/Con_2b is 129 % of control.
